# Data as given in patent US20250218531A1 (ABSCI, published 2025).
# Biological target: T1, HER2 (human epidermal growth factor receptor 2) (human, UniProt P04626 23-629)
# T1 construct: also called Antigen: HER2
# Experiment: SPR
Binder,Kd [nM],log(KD (M))
"Trastuzumab HCDR3 variant ARYGGGYYYMDY (Fab, V domains shown) VH: EVQLVESGGGLVQPGGSLRLSCAASGFNIKDTYIHWVRQAPGKGLEWVARIYPTNGYTRYADSVKGRFTISADTSKNTAYLQMNSLRAEDTAVYYCARYGGGYYYMDYWGQGTLVTVSS VL: not shown",13.3,-7.88
"Trastuzumab HCDR3 variant ARWAGDYYVMDY (Fab, V domains shown) VH: EVQLVESGGGLVQPGGSLRLSCAASGFNIKDTYIHWVRQAPGKGLEWVARIYPTNGYTRYADSVKGRFTISADTSKNTAYLQMNSLRAEDTAVYYCARWAGDYYVMDYWGQGTLVTVSS VL: not shown",7.68,-8.11
"Trastuzumab HCDR3 variant ARWPGGYYHMDY (Fab, V domains shown) VH: EVQLVESGGGLVQPGGSLRLSCAASGFNIKDTYIHWVRQAPGKGLEWVARIYPTNGYTRYADSVKGRFTISADTSKNTAYLQMNSLRAEDTAVYYCARWPGGYYHMDYWGQGTLVTVSS VL: not shown",8.49,-8.07
"Trastuzumab HCDR3 variant ARWGDYYYYMDY (Fab, V domains shown) VH: EVQLVESGGGLVQPGGSLRLSCAASGFNIKDTYIHWVRQAPGKGLEWVARIYPTNGYTRYADSVKGRFTISADTSKNTAYLQMNSLRAEDTAVYYCARWGDYYYYMDYWGQGTLVTVSS VL: not shown",2.36,-8.63
"Trastuzumab HCDR3 variant ARWGYGYYYFDY (Fab, V domains shown) VH: EVQLVESGGGLVQPGGSLRLSCAASGFNIKDTYIHWVRQAPGKGLEWVARIYPTNGYTRYADSVKGRFTISADTSKNTAYLQMNSLRAEDTAVYYCARWGYGYYYFDYWGQGTLVTVSS VL: not shown",25.2,-7.6
"Trastuzumab HCDR3 variant ARWGGYYYYFDY (Fab, V domains shown) VH: EVQLVESGGGLVQPGGSLRLSCAASGFNIKDTYIHWVRQAPGKGLEWVARIYPTNGYTRYADSVKGRFTISADTSKNTAYLQMNSLRAEDTAVYYCARWGGYYYYFDYWGQGTLVTVSS VL: not shown",12.8,-7.89
"Trastuzumab HCDR3 variant ARWFGGYYHMDY (Fab, V domains shown) VH: EVQLVESGGGLVQPGGSLRLSCAASGFNIKDTYIHWVRQAPGKGLEWVARIYPTNGYTRYADSVKGRFTISADTSKNTAYLQMNSLRAEDTAVYYCARWFGGYYHMDYWGQGTLVTVSS VL: not shown",8.52,-8.07
"Trastuzumab HCDR3 variant ARWGYYYYYMDY (Fab, V domains shown) VH: EVQLVESGGGLVQPGGSLRLSCAASGFNIKDTYIHWVRQAPGKGLEWVARIYPTNGYTRYADSVKGRFTISADTSKNTAYLQMNSLRAEDTAVYYCARWGYYYYYMDYWGQGTLVTVSS VL: not shown",2.28,-8.64
"Trastuzumab HCDR3 variant ALYNYYYYAFGF (Fab, V domains shown) VH: EVQLVESGGGLVQPGGSLRLSCAASGFNIKDTYIHWVRQAPGKGLEWVARIYPTNGYTRYADSVKGRFTISADTSKNTAYLQMNSLRAEDTAVYYCALYNYYYYAFGFWGQGTLVTVSS VL: not shown",20.6,-7.69
"Trastuzumab HCDR3 variant ARWGGYYYYMDY (Fab, V domains shown) VH: EVQLVESGGGLVQPGGSLRLSCAASGFNIKDTYIHWVRQAPGKGLEWVARIYPTNGYTRYADSVKGRFTISADTSKNTAYLQMNSLRAEDTAVYYCARWGGYYYYMDYWGQGTLVTVSS VL: not shown",3.62,-8.44
"Trastuzumab HCDR3 variant ARWGGDFYAMDY (Fab, V domains shown) VH: EVQLVESGGGLVQPGGSLRLSCAASGFNIKDTYIHWVRQAPGKGLEWVARIYPTNGYTRYADSVKGRFTISADTSKNTAYLQMNSLRAEDTAVYYCARWGGDFYAMDYWGQGTLVTVSS VL: not shown",9.49,-8.02
"Trastuzumab HCDR3 variant ARWGDGYYYMDY (Fab, V domains shown) VH: EVQLVESGGGLVQPGGSLRLSCAASGFNIKDTYIHWVRQAPGKGLEWVARIYPTNGYTRYADSVKGRFTISADTSKNTAYLQMNSLRAEDTAVYYCARWGDGYYYMDYWGQGTLVTVSS VL: not shown",5.57,-8.25
"Trastuzumab HCDR3 variant ALYGNYSYGFAR (Fab, V domains shown) VH: EVQLVESGGGLVQPGGSLRLSCAASGFNIKDTYIHWVRQAPGKGLEWVARIYPTNGYTRYADSVKGRFTISADTSKNTAYLQMNSLRAEDTAVYYCALYGNYSYGFARWGQGTLVTVSS VL: not shown",12.6,-7.9
"Trastuzumab HCDR3 variant AIYSDGAYFYGR (Fab, V domains shown) VH: EVQLVESGGGLVQPGGSLRLSCAASGFNIKDTYIHWVRQAPGKGLEWVARIYPTNGYTRYADSVKGRFTISADTSKNTAYLQMNSLRAEDTAVYYCAIYSDGAYFYGRWGQGTLVTVSS VL: not shown",10.6,-7.98
"Trastuzumab HCDR3 variant ARFGGYYYYFDY (Fab, V domains shown) VH: EVQLVESGGGLVQPGGSLRLSCAASGFNIKDTYIHWVRQAPGKGLEWVARIYPTNGYTRYADSVKGRFTISADTSKNTAYLQMNSLRAEDTAVYYCARFGGYYYYFDYWGQGTLVTVSS VL: not shown",23.5,-7.63
"Trastuzumab HCDR3 variant ARWGSGYYYMDY (Fab, V domains shown) VH: EVQLVESGGGLVQPGGSLRLSCAASGFNIKDTYIHWVRQAPGKGLEWVARIYPTNGYTRYADSVKGRFTISADTSKNTAYLQMNSLRAEDTAVYYCARWGSGYYYMDYWGQGTLVTVSS VL: not shown",4.46,-8.35

Binder,Kd [nM],log(KD (M))
"Trastuzumab HCDR3 variant ARWGGYYYYFDV (Fab, V domains shown) VH: EVQLVESGGGLVQPGGSLRLSCAASGFNIKDTYIHWVRQAPGKGLEWVARIYPTNGYTRYADSVKGRFTISADTSKNTAYLQMNSLRAEDTAVYYCARWGGYYYYFDVWGQGTLVTVSS VL: not shown",13,-7.89
"Trastuzumab HCDR3 variant ARFGNSGYQFDY (Fab, V domains shown) VH: EVQLVESGGGLVQPGGSLRLSCAASGFNIKDTYIHWVRQAPGKGLEWVARIYPTNGYTRYADSVKGRFTISADTSKNTAYLQMNSLRAEDTAVYYCARFGNSGYQFDYWGQGTLVTVSS VL: not shown",10.5,-7.98
"Trastuzumab HCDR3 variant AKYGDDNYGFSH (Fab, V domains shown) VH: EVQLVESGGGLVQPGGSLRLSCAASGFNIKDTYIHWVRQAPGKGLEWVARIYPTNGYTRYADSVKGRFTISADTSKNTAYLQMNSLRAEDTAVYYCAKYGDDNYGFSHWGQGTLVTVSS VL: not shown",15.4,-7.81
"Trastuzumab HCDR3 variant ARWGYYYYAMDY (Fab, V domains shown) VH: EVQLVESGGGLVQPGGSLRLSCAASGFNIKDTYIHWVRQAPGKGLEWVARIYPTNGYTRYADSVKGRFTISADTSKNTAYLQMNSLRAEDTAVYYCARWGYYYYAMDYWGQGTLVTVSS VL: not shown",22.6,-7.65
"Trastuzumab HCDR3 variant AKYGSNYYYLGS (Fab, V domains shown) VH: EVQLVESGGGLVQPGGSLRLSCAASGFNIKDTYIHWVRQAPGKGLEWVARIYPTNGYTRYADSVKGRFTISADTSKNTAYLQMNSLRAEDTAVYYCAKYGSNYYYLGSWGQGTLVTVSS VL: not shown",18.7,-7.73
"Trastuzumab HCDR3 variant ARWGNYYYYMDY (Fab, V domains shown) VH: EVQLVESGGGLVQPGGSLRLSCAASGFNIKDTYIHWVRQAPGKGLEWVARIYPTNGYTRYADSVKGRFTISADTSKNTAYLQMNSLRAEDTAVYYCARWGNYYYYMDYWGQGTLVTVSS VL: not shown",1.69,-8.77
"Trastuzumab HCDR3 variant ARWGYDYYYFAY (Fab, V domains shown) VH: EVQLVESGGGLVQPGGSLRLSCAASGFNIKDTYIHWVRQAPGKGLEWVARIYPTNGYTRYADSVKGRFTISADTSKNTAYLQMNSLRAEDTAVYYCARWGYDYYYFAYWGQGTLVTVSS VL: not shown",26.5,-7.58
"Trastuzumab HCDR3 variant AKYSFGGYYYGD (Fab, V domains shown) VH: EVQLVESGGGLVQPGGSLRLSCAASGFNIKDTYIHWVRQAPGKGLEWVARIYPTNGYTRYADSVKGRFTISADTSKNTAYLQMNSLRAEDTAVYYCAKYSFGGYYYGDWGQGTLVTVSS VL: not shown",19.1,-7.72
"Trastuzumab HCDR3 variant ARWFYDYYYMDY (Fab, V domains shown) VH: EVQLVESGGGLVQPGGSLRLSCAASGFNIKDTYIHWVRQAPGKGLEWVARIYPTNGYTRYADSVKGRFTISADTSKNTAYLQMNSLRAEDTAVYYCARWFYDYYYMDYWGQGTLVTVSS VL: not shown",12.6,-7.9
"Trastuzumab HCDR3 variant ARWLAYWYAMDY (Fab, V domains shown) VH: EVQLVESGGGLVQPGGSLRLSCAASGFNIKDTYIHWVRQAPGKGLEWVARIYPTNGYTRYADSVKGRFTISADTSKNTAYLQMNSLRAEDTAVYYCARWLAYWYAMDYWGQGTLVTVSS VL: not shown",3.55,-8.45
"Trastuzumab HCDR3 variant ARWGGNYYYMDY (Fab, V domains shown) VH: EVQLVESGGGLVQPGGSLRLSCAASGFNIKDTYIHWVRQAPGKGLEWVARIYPTNGYTRYADSVKGRFTISADTSKNTAYLQMNSLRAEDTAVYYCARWGGNYYYMDYWGQGTLVTVSS VL: not shown",4.22,-8.37
"Trastuzumab HCDR3 variant ARFGSYYYYFDY (Fab, V domains shown) VH: EVQLVESGGGLVQPGGSLRLSCAASGFNIKDTYIHWVRQAPGKGLEWVARIYPTNGYTRYADSVKGRFTISADTSKNTAYLQMNSLRAEDTAVYYCARFGSYYYYFDYWGQGTLVTVSS VL: not shown",13,-7.89
"Trastuzumab HCDR3 variant ARWQGGYYYWDF (Fab, V domains shown) VH: EVQLVESGGGLVQPGGSLRLSCAASGFNIKDTYIHWVRQAPGKGLEWVARIYPTNGYTRYADSVKGRFTISADTSKNTAYLQMNSLRAEDTAVYYCARWQGGYYYWDFWGQGTLVTVSS VL: not shown",13.8,-7.86
"Trastuzumab HCDR3 variant AAYTNTFYYLVY (Fab, V domains shown) VH: EVQLVESGGGLVQPGGSLRLSCAASGFNIKDTYIHWVRQAPGKGLEWVARIYPTNGYTRYADSVKGRFTISADTSKNTAYLQMNSLRAEDTAVYYCAAYTNTFYYLVYWGQGTLVTVSS VL: not shown",19.8,-7.7
"Trastuzumab HCDR3 variant ARWGFSMYSFDY (Fab, V domains shown) VH: EVQLVESGGGLVQPGGSLRLSCAASGFNIKDTYIHWVRQAPGKGLEWVARIYPTNGYTRYADSVKGRFTISADTSKNTAYLQMNSLRAEDTAVYYCARWGFSMYSFDYWGQGTLVTVSS VL: not shown",7.5,-8.12
"Trastuzumab HCDR3 variant ALWGFGWYYFDY (Fab, V domains shown) VH: EVQLVESGGGLVQPGGSLRLSCAASGFNIKDTYIHWVRQAPGKGLEWVARIYPTNGYTRYADSVKGRFTISADTSKNTAYLQMNSLRAEDTAVYYCALWGFGWYYFDYWGQGTLVTVSS VL: not shown",5.31,-8.28
